Reference: the supplement of paper PMC9942255
Values joined by “and” are separate entries in the source; they are usually repeats but may differ in a detail not shown here. Equal entries are not always repeated.

System: Bacillus subtilis DB104 (SP-AmyQ fusion secretion)
Assay: AmyQ secretion efficiency, weighted average sort bin (1 = best secretion, 10 = worst) (bin number (weighted average, 1-10)); higher = lower secretion efficiency
How it was run: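 Secretion score gives the read-frequency-weighted average bin number, normalised to beads per bin, with low-abundance sequences left out. A B. subtilis DB104 library expressing mature AmyQ fused to designed signal peptides, integrated at amyE, was encapsulated with fluorescein-starch at about 0.3 cells per ~65 nL alginate bead. Beads were grown about 13 h at room temperature, stained with nile red, and the occupied ones were sorted by large-particle flow cytometry into 10 equally populated bins by green/red fluorescence ratio before the amplicons from each bin were Illumina-sequenced.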

Row | Sequence | AmyQ secretion efficiency
1 | MKLKKRVSMFLVALTMCGGLFVTPAKYVKT | 5.18
2 | MKRLLVSLRVWMVFLMNWVTPDRKTHAAAVY | 6.55
3 | MRKKCSVCKRILVLLLSCLSGKSAYAATS | 7.44
4 | MRKKKRKLLLATSALTFSLSLVLPLDGHAKAQEV | 2.13
5 | MRKKCSVCLWILVLLLSCDSGKSAYAATS | 3.15
6 | MMKKLFHSTLIVLLFFSFFGVQIHAKKQ | 2.18
7 | MMGVLLSALLLLLFAFEPSASGKKL | 6.16
8 | MTKKTKNRLISSVLSTVVISSLLFPGAAGASSK | 1.56
9 | MKKLVLCVSILAVILSGVQLTQLS | 5.61
10 | MRSYIKVLTMCFLGLILFVPTALYDNS | 8.55
11 | MRSYIKVLTMCFLGLILFVPTHLADNS | 6.38
12 | MSGTIFFGPIILAFILFAGAIAIPS | 6.8
13 | MKLRKVLTGSVLSLGLLDDEEDDAFATSP | 7.86
14 | MKRLLSTLLIGIMLLPKAPSAFAKQD | 2.61
15 | MKKAAAVLLSLGLVFGFSYGAGHVREAKTK | 7.77
16 | MKNMSCKLVVSVTLFFSFLKRRPLAHAQNS | 8.2
17 | MTKKAWFLPLVCVLLISGWLAPAASASSQTT | 1.17
18 | MKKTIMSFVAVAALSTTAFGAHTSAKEI | 2.69
19 | MKVLLSALLLLLFAFEPSHSGKKL | 6.88
20 | MKLKKRVSMFLVALTMCGGLFVTPAKAVPR | 1.68
21 | MFNRLRVCFLAALIMAFTLPNSVYAQKP | 2
22 | MKKWIYVVLVLSIAGIGGFSGHAASS | 5.88
23 | MKKAAAVLLSLGLVFGFSYGAGHVWEAKTK | 5.37
24 | MRKTIFAFLTGLMMFGTITALSASPD | 5.45
25 | MKIRKMFMFILLSSALSFGMLISAVPALAAGT | 2.01
26 | MKKRFSGQMMTGLLFGLTSPAFAAEK | 6.38

Row | Sequence | AmyQ secretion efficiency
27 | MKVPKTMLLSTAAGLLLSLTATSDSAHYV | 6.94
28 | MTSSLIGFLVLVPALIMSGITLIEANKK | 3.95
29 | MRFTKVVGFLSVLGLAADEDLTAQAEKA | 3.78
30 | MNRRKILLSSALSLGMLVSAAPVLATSS | 2.39
31 | MKLAKRGKSYYPYTSLAITAKAKEL | 8.51
32 | MKLAKRVSALTPSTTLAITAKLKEL | 6.8
33 | MKKAWFLPLVCVLLISGWLAPAASASAQTT | 2.33
34 | MKVLLSALLLLLFARRKSASGKKL | 7.09
35 | MRKKLKWLSFLLGFIILLFLFKYQSSNNDS | 6.36
36 | MFNRLFRVCFLAALIMAFTLPNSQYAQKP | 7.49
37 | MKLSVKIAGVLTVAAAAMTAKMYATAADD | 6.81
38 | MKRLLVSLRVWMVFLMNWVTPDRKTAAARRK | 7.14
39 | MKKRLILLSAASLAFFAMSGSAQAAAY | 2.92
40 | MKKQIITATTAVVLGSTLFAGAPPATASVPVVGASAQSI | 2.17
41 | MKQIMIFLTSFMLLAMTGQTTLAKDV | 3.1
42 | MTMSSGMSSILAVSVLLLLSRLPVQASLTSE | 4.1
43 | MKKRITYSLLALLAVVATDSSKAKAAEA | 2.87
44 | MLKKVILAAFILVGSTLGRRKRKSRASAKHV | 5.28
45 | MKVPKTMLLSTAAGLLLSLDEDSVSAHYV | 6.39
46 | MIAYFGKCRKTRTIMFLGVLFGMQQANHG | 3.14
47 | MKRLCKKRKVFSLFLVLLPGKALGAVD | 7.25
48 | MKKRLIAPMLKRKKRRAFFAMSGSAQAAAY | 7.88
49 | MKVCQKSIVRFLVFLIIFLFVIGTSVPFMANAQSD | 2.68
50 | MRFTKVRRRRKKLGLAAVFPLTAQAEKA | 7.25
51 | MLTFLIGAGVAAVILSGWFIADHQTHSQEM | 6.55
52 | MKKKQVSHAIIISVMLSFVIAVFHTIHKSELTP | 4.63

Row | Sequence | AmyQ secretion efficiency
53 | MTMLRKIIGWILLLCIIPLFAFTVIASWKEV | 5.23
54 | MMIKQNMSSCVICLSLLVFGTTAAHAEET | 2.9
55 | MHLIRAAGAVCLAVVLIAGCRFNEDQHQAEGRRR | 5.26
56 | MKRTWNVCLTALLSVLLVAGSVPFHAEAAKK | 2.52
57 | MTMLRKIRKWILLLCIIPLFAFTVIASGKEV | 6.76
58 | MKKSGSCQKTLAVILSGVALTQLS | 4.76
59 | MKKFVAVAALSTTAFGAHASAKEI | 6.74
60 | MNKFLKSNFRFKRAAALGISLLASSNFIKASND | 3.29
61 | MKLSVKIAGVLTVAAAAMTAKMYWTAKGN | 7.62
62 | MKSKGSIMACLILFSFTITTFINTETSSAFSN | 3.41
63 | MKRLFMKGSLVLFAVVFVFAVKGAPAKAETH | 3.72
64 | MKKLVLCVSILAVILSGVALYQLS | 4.11
65 | MKTKTLFIFSAILTLSIEDEDEETFAQTA | 5.99
66 | MKKKLAAGLTASAIVGTTLVVTPAEGATI | 3.33
67 | MKKLLAAGIIGLLTVSIASPSFQAEK | 7.82
68 | MTKLKMLSMLRRKKASLFIFSSQALAVQY | 6.44
69 | MKKKSTVFLSVVLVTTVFLVKQQESVAQAKQL | 2.06
70 | MKLKKRVSMFLVALTMCGGLFVRRAKAVKT | 7.34
71 | MTKKAWFLPLVCVLLISGWLAPAASSSAQTT | 3
72 | MKLSVKIAGVLTVAAAAMTAKMYATAKKK | 5.42
73 | MKRIRIPMTLALGAALTIAPLSFYSAEEN | 5.14
74 | MKKKLAAGLTASAIVGTTLVTTISAVTPAEAATI | 2.98
75 | MKKLVLCVSILAVILSGVVLTQLS | 5.78
76 | MKRLCLWFTVFSLFLVLLPGKALYAVD | 4.11
77 | MKRKLLSSLAISALSLGLLVSAPTAGFAAES | 3.25
78 | MSSGIIVAGLAVSAVVGSSMAAAPAEAKTI | 6.57

Row | Sequence | AmyQ secretion efficiency
79 | MRKKRVITCVMAASLTLGPAGYATAKED | 2.6
80 | MLKRTSFVSSLFISSAVLLSILLIASTAHAQSA | 3.17
81 | MLCVMMLLFSAIATFVVVAQAKDQ | 6.49
82 | MPYLKRGGLLLVTGLFMSLFAVTATASAQTG | 1.51
83 | MTKRGIQAFAGGIILATAVLAAVFYLTDEDQAAAD | 6.91
84 | MRGKSSTRKSLIMLIAGFLISFSFQM | 7.08
85 | MLKKKWMVGLLAGCLAAGGFSYNAFFTEN | 6.5
86 | MNLRKILLSSALSLGMLVSAAPVLATEE | 1.83
87 | MKRFSTLLLGILCSAAVFLIGAPSRALGAEV | 2.96
88 | MKRIRIPMTLALGAALTIAPLSFASAASN | 1.02
89 | MFNRLFRVCFLAALIMAFTLPNSVYYQKP | 6.22
90 | MKKTIMSFVAVAALSTTAFGAHLSAKEI | 2.5
91 | MRIFKKAVFVIMISFLIATVNVNTAHAAIG | 1.03
92 | MKLWMRKTLVVLFTIVTFGLVSPPAAFMADKP | 2.2
93 | MKVLLSALLLLLFAFEPSISGKKL | 7.18
94 | MTMLRKIIGWILLLCIIPLFAFTVIRSGKEV | 7.52
95 | MKKAFILSAAAAVGLFTFGGVQQASAADD | 3.55
96 | MKKAFILSAAAAVGLFTFGGVQQMSAKEL | 2.71
97 | MKLAKRVSALTPSTTLAITAKHKEL | 6.77
98 | MRNLTKTSLLLAGLCTAAQMVFVTHTFTFVGASAEES | 7.25
99 | MGLGKKLMVAVAAIFMMLMIFLPGVQAAEG | 1.54
100 | MKKLLAAGIIGLLTVTVFVTSIASPSFAAEK | 2.51
101 | MKKRLIGFLVLVPALIMSGITLIEDNKK | 7.79
102 | MGLGKKLSVAVAASFMSLSISLVSVQAAEG | 1.37
103 | MKQGKFSRYYKSLLMLTLVVAPKEKAEAASS | 6.74
104 | MKQIRKKRKKFMLLAMTGQTALAKDV | 7.04

Row | Sequence | AmyQ secretion efficiency
105 | MKKKLAAGLTASAIVGTTLVVFTAEAATI | 5.8
106 | MKLRKVLTGSVLSLGLLVSASPAFATSD | 2.17
107 | MRKWYFILLAGVLTSVILAFVYDKTKANDD | 6.75
108 | MKKRLIAPKLLSAASLAFFAMSGSAQAAAY | 3.27
109 | MKKRLIGFLVLVPALIMSGITLREANKK | 7.02
110 | MARKRKIIAAVIVIAALITFNVRNASPG | 6.43
111 | MKRTSTAYLLLGILCSAAVFLIGAPSRALGAEV | 2.85
112 | MKKGIIRTFFLLVSFVLFFALSTGITGVQAAPA | 2.73
113 | MTMLRKIIGWILLLCIIDDEAFTVIASGKEV | 5.2
114 | MAIIIAIIAAVIVIAALITFNVQNASPG | 7.71
115 | MLTKRLLTIYIMLLGLIAWFPGASQAEEK | 4.32
116 | MKKWMITIAMLILAGIALFVFISPLKSHKT | 6.27 and 6.6 and 6.11
117 | MKKIWIGMLAAAMVPKVSLADAA | 5.25
118 | MRKRRTIFAFLTGLMMFGTITAASASPD | 4.74
119 | MPYLKRVLLLLVTGLFMSLFAVTATGSAQTG | 1.13
120 | MLTKRLLTIYIMLLGLIRRKPGAAQAEEK | 7.69
121 | MKSRTIWTIILGALLVCSAASSCIAVAYTLTKSQAGASSS | 6.64
122 | MRKRRKKILALFVLSLGLLSFMVTPVSAASK | 2.65
123 | MKKGIIRFLLVSFVLFFALSTGITGAQAAPA | 2.21
124 | MKKRKVLMAFIICLSLILSVLAAPPSGAKAESV | 1.28
125 | MRIFKKAVFVIMISFLIARRRKKRAHAAID | 8.88
126 | MTKRLSTTLTFLGIQAFAGGIILATAVLAAVFYLTDEDQAAAV | 6.23
127 | MHLIRAAGAVCLAVVLIAGCRDEEDEHQAEGENT | 4.66
128 | MKQFAITLSVLCALILLVPTLLVIPFFHNKEAGASV | 6.58
